Assay [1] concerns native cynomolgus CXCR2 expressed by cynomolgus neutrophils. Briefly: Flow cytometry binding to cynomolgus blood neutrophils. Further details: species or system cynomolgus monkey. As to conditions: FIG. 2, MFI. On the procedure: Whole human buffy coat, PBMC enriched fractions prepared from human peripheral blood buffy coat or cynomolgus monkey whole blood was used for analysis of antibody binding activity by flow cytometry. Briefly, blood was untreated or diluted 1:1 in sterile filtered room temperature phosphate-buffered saline (PBS). 30 mL samples were layered over 15 mL Lymphoprep™ (Stem Cell Technologies, cat #07851). Peripheral blood mononuclear cells (PBMC) were enriched by room temperature centrifugation at 700 g for 30 minutes with no braking. The PBMC layer was isolated and cells washed in PBS containing 2 mM EDTA with low speed centrifugation at 200 g, to remove platelet contamination. Whole blood or PBMC enriched cell fractions were resuspended in red blood cell lysing solution (BioLegend, 420301). Viable cell counts were determined and cells resuspended at 1×10^7 cells per mL in FACS buffer (1×PBS+0.5% (w/v) BSA+2 mM EDTA pH 7.2).
Chain of native cynomolgus CXCR2 expressed by cynomolgus neutrophils (as listed by the source): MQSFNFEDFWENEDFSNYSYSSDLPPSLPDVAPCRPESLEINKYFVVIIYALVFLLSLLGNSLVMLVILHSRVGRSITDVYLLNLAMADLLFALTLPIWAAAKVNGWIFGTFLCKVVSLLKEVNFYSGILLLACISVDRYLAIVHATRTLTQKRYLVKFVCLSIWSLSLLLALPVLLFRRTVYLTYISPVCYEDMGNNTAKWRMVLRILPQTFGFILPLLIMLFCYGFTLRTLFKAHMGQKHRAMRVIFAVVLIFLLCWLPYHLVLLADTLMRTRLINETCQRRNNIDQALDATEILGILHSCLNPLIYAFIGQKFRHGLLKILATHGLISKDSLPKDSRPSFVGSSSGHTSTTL
Flow cytometry binding assays using whole blood or PBMC enriched preparations: Binding assays to detect CXCR2 on blood neutrophil populations using test antibodies were performed essentially as described for assays using transiently transfected Expi293F™ cells. Binding of antibodies to human CXCR2 on the surface of the neutrophils was measured using anti-CXCR2 antibody directly conjugated to the fluorophore allophycocyanin (APC). Matched isotype control antibodies were included for comparison. Cells were incubated with lineage specific antibodies and 2 μg/ml of APC conjugated anti-CXCR2 antibody or isotype control prepared in ice cold 3% BSA/PBS for a minimum of 30 minutes at 4° C. The commercial anti-CXCR2 antibody (clone 48331 (R&D Systems FAB331A)) was used as a positive control. […] The level of fluorescence on the cell surface was measured by flow cytometry. Using this method, test anti-CXCR2 antibodies were detected binding neutrophils from both human and cynomolgus monkey.
A general note: A flow cytometer gives signals particle by particle.

For assay [2], the target named is T1, Human CXCR2 (Homo sapiens, UniProt P25025).
T1 sequence (P25025 1-360): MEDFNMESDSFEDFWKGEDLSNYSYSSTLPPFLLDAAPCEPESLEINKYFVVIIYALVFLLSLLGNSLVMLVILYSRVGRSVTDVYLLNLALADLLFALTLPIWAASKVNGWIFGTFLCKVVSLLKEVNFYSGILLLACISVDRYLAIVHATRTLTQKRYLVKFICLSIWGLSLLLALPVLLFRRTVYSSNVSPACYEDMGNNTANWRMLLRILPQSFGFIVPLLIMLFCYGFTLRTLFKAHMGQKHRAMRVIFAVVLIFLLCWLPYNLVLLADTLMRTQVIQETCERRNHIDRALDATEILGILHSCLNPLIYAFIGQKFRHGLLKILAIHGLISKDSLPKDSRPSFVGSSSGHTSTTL
Briefly: cELISA of hybridoma supernatants on cells transfected with human CXCR2. The class given is binding. On the set-up: host or cells: Expi293F cells, vector pTT5. As to conditions: hybridoma supernatant; fluorescence units relative to positive control (100%). Here is the method: To generate hybridomas which produced monoclonal antibodies to human CXCR2, splenocytes and/or lymph node cells from animals with the highest anti-CXCR2 titres were isolated and fused to mouse myeloma cells (ATCC, CRL-1580). Cells were plated at approximately 1×10^5 cells/mL in flat bottom microtiter plates, followed by a two week incubation in selective medium (10% FCS and 1×HAT (Sigma)). Hybridomas were expanded by serial passage through four media changes in 96-well plates (96-well stages 1 to 4), then, where required, expanded into T25 and T75 flasks. […] Bound antibodies were detected using a goat anti-rat IgG-HRP (Southern Biotech, #3030-05) secondary antibody.
A panel of hybridomas was generated using lymph nodes and spleen cells from the transgenic rats engineered to express human variable region sequences. A cellular ELISA (cELISA) was used to detect human CXCR2 binding activity in supernatants taken during the expansion process for the hybridomas (Table 5). Hybridomas that retained expression of antibodies that bound CXCR2 after several passages were selected for DNA sequencing.

For assay [3], the target named is T2, Murine CXCR2 (Mus musculus, UniProt P35343).
T2 construct: expressed in transfected cells
T2 sequence (P35343 1-359): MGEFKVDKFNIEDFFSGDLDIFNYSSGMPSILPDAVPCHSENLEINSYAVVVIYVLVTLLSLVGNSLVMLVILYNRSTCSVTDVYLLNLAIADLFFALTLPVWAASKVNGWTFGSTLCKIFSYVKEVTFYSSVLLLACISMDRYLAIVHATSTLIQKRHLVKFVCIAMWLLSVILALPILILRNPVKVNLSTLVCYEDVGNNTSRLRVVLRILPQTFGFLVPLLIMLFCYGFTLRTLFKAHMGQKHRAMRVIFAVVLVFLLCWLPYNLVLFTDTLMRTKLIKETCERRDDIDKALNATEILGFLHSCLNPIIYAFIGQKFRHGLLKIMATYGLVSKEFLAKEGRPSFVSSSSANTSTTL
The assay is described as follows: cELISA of hybridoma supernatants on cells transfected with murine CXCR2. The class given is binding. The conditions noted are these: hybridoma supernatant; fluorescence units relative to positive control (100%).

B1: BKO-4A8: parental anti-CXCR2 antibody, VH SEQ ID NO: 17, VL SEQ ID NO: 18 (antibody, V domains shown)
VH: EVQLLESGGGLVQPGGSLRLSCAASGFTFSSSTMSWVRQAPGKGLEWVSAISGRGRNTYYADSVKGRFTISRDNSRNTLYLQMNSLRAEDTAVYYCAIQMGYWGQGILVTVSS
VL: QSALTQPPSASGSPGQSVTISCIGTSSDVGGYNYVSWYQQHPDKAPKLMIYEVNKRPSGVPDRFSGSKSGNTASLTVSGLQAEDEADYYCSSYAGNNNFGVFGGGTKLTVL
modifications: BKO_4A8_VH; BKO_4A8_VL
B1: the “binding to native cynomolgus CXCR2 on cynomolgus PBMCs / neutrophils” value in assay [1] is listed as “high binding activity”. The “Human CXCR2 % Positive” value in assay [2] was found to be 110%. For the same molecule, the “Murine CXCR2 % Positive” value in assay [3] was determined as 5%.

For the origin of these results see patent US12018084B2, “Anti-CXCR2 antibodies and uses thereof” (Cephalon LLC, priority 2018, dated 2024).
